Test results as given in the supplement of paper PMC10126150.
± gives the standard deviation of the averaged measurements.

test system: ATP; experiment: switch fluorescence ratio, 500 uM ATP over buffer (Cy3 cluster intensity, sum of 5 cycles each) (fold (ratio)); higher = stronger signal-on switching upon ATP binding; sequences stand for … in TCGTCGGCAGCGTCAGATGTGTATAAGAGACAGTTTTTTTTTTTTTTTTTTTTTTTTT…TC; details: aptamer strand: ATP DNA aptamer (quencher-CACCTGGGGGAGTATTGCGGAGGAAGG + anchor), 100 nM annealed; ATP concentration: 500 uM
Outline: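 For every switch-domain sequence, the fluorescence ratio is the mean of per-cluster values, each being summed target-cycle Cy3 intensity over summed buffer-cycle Cy3 intensity. Clusters outside 100-1000 RFU were excluded. On a modified Illumina MiSeq flow-cell, the Cy3-labelled switching-strand clusters were annealed to 100 nM quencher-labelled ATP aptamer, imaged in selection buffer and then after 15 min with 500 uM ATP at 22 °C. Five such cycles were run, with NaOH stripping and re-annealing between them.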
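Note: ATP exposure 15 min at 22 °C before imaging.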

For TGGATTTTGG, which switch fluorescence ratio is on record?
The switch fluorescence ratio was 0.98 ± 0.021.

TGGCAATTAG was tested. Which switch fluorescence ratio did it give?
Its switch fluorescence ratio is 1.1 ± 0.074.

With TGGCACCTTT as the sequence, how does the switch fluorescence ratio read?
Its switch fluorescence ratio is 1.11 ± 0.036.

With TGGCACGGGC as the sequence, how does the switch fluorescence ratio read?
The switch fluorescence ratio was 1.02 ± 0.047.

Which switch fluorescence ratio does the source give for TGGCAGAGGC here?
The switch fluorescence ratio was 1.04 ± 0.038.

For TGGCAGTCGG, which switch fluorescence ratio is on record?
The switch fluorescence ratio was 0.978 ± 0.019.

How did the switch fluorescence ratio turn out when TGGCATTTTT was run?
The switch fluorescence ratio was 0.991 ± 0.025.

With TGGCCACTT as the sequence, how does the switch fluorescence ratio read?
The switch fluorescence ratio was 0.986 ± 0.023.

Which switch fluorescence ratio does the source give for TGGCCGGGCA here?
Its switch fluorescence ratio is 2.13 ± 1.6.

How did the switch fluorescence ratio turn out when TGGCGAAGGT was run?
The switch fluorescence ratio was 0.9747 ± 0.0085.

How did the switch fluorescence ratio turn out when TGGCGCTTTT was run?
Its switch fluorescence ratio is 0.9976 ± 0.0079.

TGGCGGCTGG was tested. Which switch fluorescence ratio did it give?
Its switch fluorescence ratio is 0.996 ± 0.018.

Which switch fluorescence ratio does the source give for TGGCGGGGCA here?
The switch fluorescence ratio was 0.998 ± 0.035.

For TGGCGGTGGC, which switch fluorescence ratio is on record?
The switch fluorescence ratio was 0.9806 ± 0.006.

With TGGCGTAGGT as the sequence, how does the switch fluorescence ratio read?
The switch fluorescence ratio was 1.005 ± 0.0083.

For TGGCGTAGTT, which switch fluorescence ratio is on record?
Its switch fluorescence ratio is 0.991 ± 0.037.

Which switch fluorescence ratio does the source give for TGGCGTGTCA here?
The switch fluorescence ratio was 1.02 ± 0.051.

TGGCGTTTAC was tested. Which switch fluorescence ratio did it give?
The switch fluorescence ratio was 1.46 ± 0.64.

With TGGCGTTTTG as the sequence, how does the switch fluorescence ratio read?
Its switch fluorescence ratio is 0.9687 ± 0.0069.

For TGGCTCAGGC, which switch fluorescence ratio is on record?
Its switch fluorescence ratio is 1 ± 0.025.

TGGCTCTCAT was tested. Which switch fluorescence ratio did it give?
Its switch fluorescence ratio is 1.02 ± 0.017.

Which switch fluorescence ratio does the source give for TGGCTGTTGA here?
Its switch fluorescence ratio is 1.01 ± 0.018.

How did the switch fluorescence ratio turn out when TGGCTTTGGT was run?
Its switch fluorescence ratio is 0.9862 ± 0.0046.

With TGGCTTTTAC as the sequence, how does the switch fluorescence ratio read?
The switch fluorescence ratio was 1.09 ± 0.056.

TGGGAAAAGA was tested. Which switch fluorescence ratio did it give?
The switch fluorescence ratio was 0.983 ± 0.017.

With TGGGAAACGT as the sequence, how does the switch fluorescence ratio read?
The switch fluorescence ratio was 1.09 ± 0.027.

Which switch fluorescence ratio does the source give for TGGGAAAGAA here?
The switch fluorescence ratio was 1.04 ± 0.068.

TGGGAAAGGA was tested. Which switch fluorescence ratio did it give?
The switch fluorescence ratio was 1.01 ± 0.051.

How did the switch fluorescence ratio turn out when TGGGAAAGGT was run?
Its switch fluorescence ratio is 0.994 ± 0.025.

How did the switch fluorescence ratio turn out when TGGGAAATCA was run?
The switch fluorescence ratio was 0.993 ± 0.048.

With TGGGAAATGT as the sequence, how does the switch fluorescence ratio read?
The switch fluorescence ratio was 1.1 ± 0.23.

Which switch fluorescence ratio does the source give for TGGGAAATTA here?
The switch fluorescence ratio was 0.999 ± 0.024.

With TGGGAAGGAT as the sequence, how does the switch fluorescence ratio read?
The switch fluorescence ratio was 1.006 ± 0.0016.

How did the switch fluorescence ratio turn out when TGGGAAGGGC was run?
The switch fluorescence ratio was 1.02 ± 0.03.

How did the switch fluorescence ratio turn out when TGGGACACTG was run?
Its switch fluorescence ratio is 0.972 ± 0.035.

For TGGGACCCCC, which switch fluorescence ratio is on record?
The switch fluorescence ratio was 1.34 ± 0.47.

For TGGGACGTGG, which switch fluorescence ratio is on record?
The switch fluorescence ratio was 0.9812 ± 0.0086.

For TGGGAGAAAA, which switch fluorescence ratio is on record?
Its switch fluorescence ratio is 1.0069 ± 0.00087.

For TGGGAGAAAT, which switch fluorescence ratio is on record?
The switch fluorescence ratio was 2.39 ± 2.4.

How did the switch fluorescence ratio turn out when TGGGAGACGG was run?
The switch fluorescence ratio was 1.2 ± 0.38.

How did the switch fluorescence ratio turn out when TGGGAGATGT was run?
The switch fluorescence ratio was 0.993 ± 0.015.

For TGGGAGGACG, which switch fluorescence ratio is on record?
Its switch fluorescence ratio is 0.97 ± 0.038.

How did the switch fluorescence ratio turn out when TGGGAGGCGT was run?
Its switch fluorescence ratio is 0.992 ± 0.02.

With TGGGAGGGAG as the sequence, how does the switch fluorescence ratio read?
The switch fluorescence ratio was 0.987 ± 0.028.

For TGGGAGGGTG, which switch fluorescence ratio is on record?
The switch fluorescence ratio was 1.02 ± 0.067.

Which switch fluorescence ratio does the source give for TGGGAGTTCC here?
The switch fluorescence ratio was 1.04 ± 0.036.

For TGGGATAAGT, which switch fluorescence ratio is on record?
The switch fluorescence ratio was 1.01 ± 0.018.

How did the switch fluorescence ratio turn out when TGGGATATAG was run?
Its switch fluorescence ratio is 0.994 ± 0.022.

TGGGATATTA was tested. Which switch fluorescence ratio did it give?
Its switch fluorescence ratio is 0.9995 ± 0.007.

How did the switch fluorescence ratio turn out when TGGGATCAAG was run?
Its switch fluorescence ratio is 1 ± 0.032.

With TGGGATGGGG as the sequence, how does the switch fluorescence ratio read?
The switch fluorescence ratio was 1.01 ± 0.037.

With TGGGATTCGG as the sequence, how does the switch fluorescence ratio read?
Its switch fluorescence ratio is 1.03 ± 0.092.

TGGGATTTAG was tested. Which switch fluorescence ratio did it give?
Its switch fluorescence ratio is 1 ± 0.044.

With TGGGATTTTC as the sequence, how does the switch fluorescence ratio read?
Its switch fluorescence ratio is 1.03 ± 0.067.

With TGGGCAATTT as the sequence, how does the switch fluorescence ratio read?
Its switch fluorescence ratio is 1.09 ± 0.036.

How did the switch fluorescence ratio turn out when TGGGCAGAGG was run?
Its switch fluorescence ratio is 1.01 ± 0.024.

Which switch fluorescence ratio does the source give for TGGGCAGGAC here?
The switch fluorescence ratio was 1.41 ± 0.49.

TGGGCAGGGA was tested. Which switch fluorescence ratio did it give?
Its switch fluorescence ratio is 0.9817 ± 0.0024.

TGGGCATATA was tested. Which switch fluorescence ratio did it give?
Its switch fluorescence ratio is 0.996 ± 0.012.

For TGGGCCAAGC, which switch fluorescence ratio is on record?
The switch fluorescence ratio was 0.995 ± 0.025.

How did the switch fluorescence ratio turn out when TGGGCCCGGC was run?
The switch fluorescence ratio was 1.02 ± 0.053.

For TGGGCGAATC, which switch fluorescence ratio is on record?
The switch fluorescence ratio was 0.998 ± 0.014.

For TGGGCGGGA, which switch fluorescence ratio is on record?
The switch fluorescence ratio was 1 ± 0.03.

With TGGGCTATTT as the sequence, how does the switch fluorescence ratio read?
The switch fluorescence ratio was 0.964 ± 0.017.

For TGGGCTCTGT, which switch fluorescence ratio is on record?
Its switch fluorescence ratio is 0.978 ± 0.044.

Which switch fluorescence ratio does the source give for TGGGCTTCGG here?
The switch fluorescence ratio was 0.9689 ± 0.0093.

For TGGGCTTGTT, which switch fluorescence ratio is on record?
The switch fluorescence ratio was 0.999 ± 0.036.

For TGGGGAACGG, which switch fluorescence ratio is on record?
The switch fluorescence ratio was 0.981 ± 0.031.

TGGGGAAGGT was tested. Which switch fluorescence ratio did it give?
The switch fluorescence ratio was 0.994 ± 0.022.

For TGGGGAATCT, which switch fluorescence ratio is on record?
The switch fluorescence ratio was 1.02 ± 0.016.

TGGGGAGAGC was tested. Which switch fluorescence ratio did it give?
Its switch fluorescence ratio is 0.992 ± 0.019.

TGGGGAGGTT was tested. Which switch fluorescence ratio did it give?
The switch fluorescence ratio was 0.97 ± 0.044.

How did the switch fluorescence ratio turn out when TGGGGATTGG was run?
The switch fluorescence ratio was 1.17 ± 0.49.

How did the switch fluorescence ratio turn out when TGGGGATTTT was run?
The switch fluorescence ratio was 0.998 ± 0.063.

Which switch fluorescence ratio does the source give for TGGGGCGAAG here?
Its switch fluorescence ratio is 1.01 ± 0.026.

How did the switch fluorescence ratio turn out when TGGGGCGGGT was run?
Its switch fluorescence ratio is 1.02 ± 0.017.

For TGGGGCGTCT, which switch fluorescence ratio is on record?
Its switch fluorescence ratio is 1.01 ± 0.043.

For TGGGGCTGCC, which switch fluorescence ratio is on record?
Its switch fluorescence ratio is 0.969 ± 0.039.

Which switch fluorescence ratio does the source give for TGGGGCTTCA here?
Its switch fluorescence ratio is 1.01 ± 0.028.

How did the switch fluorescence ratio turn out when TGGGGGAAA was run?
Its switch fluorescence ratio is 0.988 ± 0.04.

With TGGGGGAAAC as the sequence, how does the switch fluorescence ratio read?
Its switch fluorescence ratio is 1.01 ± 0.032.

With TGGGGGAACC as the sequence, how does the switch fluorescence ratio read?
Its switch fluorescence ratio is 1.004 ± 0.0099.

With TGGGGGACGT as the sequence, how does the switch fluorescence ratio read?
Its switch fluorescence ratio is 0.999 ± 0.045.

For TGGGGGAGCG, which switch fluorescence ratio is on record?
The switch fluorescence ratio was 0.99 ± 0.019.

TGGGGGAGGT was tested. Which switch fluorescence ratio did it give?
The switch fluorescence ratio was 1 ± 0.027.

How did the switch fluorescence ratio turn out when TGGGGGCCAA was run?
Its switch fluorescence ratio is 0.965 ± 0.012.

Which switch fluorescence ratio does the source give for TGGGGGCCCT here?
Its switch fluorescence ratio is 0.996 ± 0.026.

TGGGGGCGCC was tested. Which switch fluorescence ratio did it give?
Its switch fluorescence ratio is 0.982 ± 0.041.

TGGGGGCGGT was tested. Which switch fluorescence ratio did it give?
Its switch fluorescence ratio is 0.996 ± 0.028.

For TGGGGGCGTT, which switch fluorescence ratio is on record?
The switch fluorescence ratio was 1 ± 0.034.

With TGGGGGGACA as the sequence, how does the switch fluorescence ratio read?
Its switch fluorescence ratio is 0.985 ± 0.015.

Which switch fluorescence ratio does the source give for TGGGGGGCCG here?
The switch fluorescence ratio was 1.06 ± 0.19.

Which switch fluorescence ratio does the source give for TGGGGGGCTT here?
The switch fluorescence ratio was 0.989 ± 0.023.

With TGGGGGTGGA as the sequence, how does the switch fluorescence ratio read?
The switch fluorescence ratio was 1.01 ± 0.046.

For TGGGGGTGTT, which switch fluorescence ratio is on record?
Its switch fluorescence ratio is 1 ± 0.032.

Which switch fluorescence ratio does the source give for TGGGGGTTGC here?
Its switch fluorescence ratio is 0.982 ± 0.042.

Which switch fluorescence ratio does the source give for TGGGGGTTTC here?
Its switch fluorescence ratio is 0.975 ± 0.053.

With TGGGGTACCT as the sequence, how does the switch fluorescence ratio read?
Its switch fluorescence ratio is 1.08 ± 0.077.

With TGGGGTACTA as the sequence, how does the switch fluorescence ratio read?
The switch fluorescence ratio was 0.975 ± 0.069.

For TGGGGTATTA, which switch fluorescence ratio is on record?
Its switch fluorescence ratio is 0.998 ± 0.018.
